# Source: patent publication US20120141480A1
# Columns and labels:
# [1] = biological target: human factor D (purified from human serum) (human) (UniProt P00746); assay: cell-based or functional assay
# [2] = biological target: dog factor D (in dog serum) (dog); assay: cell-based or functional assay; settings: scale: times less effective than on human factor D
# Sequence of UniProt P00746 (P00746 26-253 N180D): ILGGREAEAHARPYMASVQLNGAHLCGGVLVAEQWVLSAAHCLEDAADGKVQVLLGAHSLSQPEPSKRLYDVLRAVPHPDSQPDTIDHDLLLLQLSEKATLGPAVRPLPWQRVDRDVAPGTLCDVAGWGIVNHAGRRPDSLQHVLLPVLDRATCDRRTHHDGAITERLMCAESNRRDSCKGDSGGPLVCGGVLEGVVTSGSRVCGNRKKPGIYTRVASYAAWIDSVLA
substance,measurement,setting,value
MAb 166-32 (antibody),alternative pathway hemolytic activity of plasma from an extracorporeal circuit with human whole blood (molar ratio (MAb:factor D)),[1],1.5
same,inhibition of factor D dependent hemolysis of unsensitized rabbit RBCs (factor D depleted human serum reconstituted with purified factor D),[1],0.3 µg/mL
same,molar ratio for inhibition of factor D dependent hemolysis (molar ratio (MAb 166-32 to factor D)),[1],0.5
same,"neutralization of dog factor D in hemolytic assays, against human factor D",[2],> 10
